Test results published in patent US20260041744.

Biological target: cellular receptors (CIMPR) on normal and Pompe patient fibroblasts (UniProt P11717)
Sequence (P11717 41-2491): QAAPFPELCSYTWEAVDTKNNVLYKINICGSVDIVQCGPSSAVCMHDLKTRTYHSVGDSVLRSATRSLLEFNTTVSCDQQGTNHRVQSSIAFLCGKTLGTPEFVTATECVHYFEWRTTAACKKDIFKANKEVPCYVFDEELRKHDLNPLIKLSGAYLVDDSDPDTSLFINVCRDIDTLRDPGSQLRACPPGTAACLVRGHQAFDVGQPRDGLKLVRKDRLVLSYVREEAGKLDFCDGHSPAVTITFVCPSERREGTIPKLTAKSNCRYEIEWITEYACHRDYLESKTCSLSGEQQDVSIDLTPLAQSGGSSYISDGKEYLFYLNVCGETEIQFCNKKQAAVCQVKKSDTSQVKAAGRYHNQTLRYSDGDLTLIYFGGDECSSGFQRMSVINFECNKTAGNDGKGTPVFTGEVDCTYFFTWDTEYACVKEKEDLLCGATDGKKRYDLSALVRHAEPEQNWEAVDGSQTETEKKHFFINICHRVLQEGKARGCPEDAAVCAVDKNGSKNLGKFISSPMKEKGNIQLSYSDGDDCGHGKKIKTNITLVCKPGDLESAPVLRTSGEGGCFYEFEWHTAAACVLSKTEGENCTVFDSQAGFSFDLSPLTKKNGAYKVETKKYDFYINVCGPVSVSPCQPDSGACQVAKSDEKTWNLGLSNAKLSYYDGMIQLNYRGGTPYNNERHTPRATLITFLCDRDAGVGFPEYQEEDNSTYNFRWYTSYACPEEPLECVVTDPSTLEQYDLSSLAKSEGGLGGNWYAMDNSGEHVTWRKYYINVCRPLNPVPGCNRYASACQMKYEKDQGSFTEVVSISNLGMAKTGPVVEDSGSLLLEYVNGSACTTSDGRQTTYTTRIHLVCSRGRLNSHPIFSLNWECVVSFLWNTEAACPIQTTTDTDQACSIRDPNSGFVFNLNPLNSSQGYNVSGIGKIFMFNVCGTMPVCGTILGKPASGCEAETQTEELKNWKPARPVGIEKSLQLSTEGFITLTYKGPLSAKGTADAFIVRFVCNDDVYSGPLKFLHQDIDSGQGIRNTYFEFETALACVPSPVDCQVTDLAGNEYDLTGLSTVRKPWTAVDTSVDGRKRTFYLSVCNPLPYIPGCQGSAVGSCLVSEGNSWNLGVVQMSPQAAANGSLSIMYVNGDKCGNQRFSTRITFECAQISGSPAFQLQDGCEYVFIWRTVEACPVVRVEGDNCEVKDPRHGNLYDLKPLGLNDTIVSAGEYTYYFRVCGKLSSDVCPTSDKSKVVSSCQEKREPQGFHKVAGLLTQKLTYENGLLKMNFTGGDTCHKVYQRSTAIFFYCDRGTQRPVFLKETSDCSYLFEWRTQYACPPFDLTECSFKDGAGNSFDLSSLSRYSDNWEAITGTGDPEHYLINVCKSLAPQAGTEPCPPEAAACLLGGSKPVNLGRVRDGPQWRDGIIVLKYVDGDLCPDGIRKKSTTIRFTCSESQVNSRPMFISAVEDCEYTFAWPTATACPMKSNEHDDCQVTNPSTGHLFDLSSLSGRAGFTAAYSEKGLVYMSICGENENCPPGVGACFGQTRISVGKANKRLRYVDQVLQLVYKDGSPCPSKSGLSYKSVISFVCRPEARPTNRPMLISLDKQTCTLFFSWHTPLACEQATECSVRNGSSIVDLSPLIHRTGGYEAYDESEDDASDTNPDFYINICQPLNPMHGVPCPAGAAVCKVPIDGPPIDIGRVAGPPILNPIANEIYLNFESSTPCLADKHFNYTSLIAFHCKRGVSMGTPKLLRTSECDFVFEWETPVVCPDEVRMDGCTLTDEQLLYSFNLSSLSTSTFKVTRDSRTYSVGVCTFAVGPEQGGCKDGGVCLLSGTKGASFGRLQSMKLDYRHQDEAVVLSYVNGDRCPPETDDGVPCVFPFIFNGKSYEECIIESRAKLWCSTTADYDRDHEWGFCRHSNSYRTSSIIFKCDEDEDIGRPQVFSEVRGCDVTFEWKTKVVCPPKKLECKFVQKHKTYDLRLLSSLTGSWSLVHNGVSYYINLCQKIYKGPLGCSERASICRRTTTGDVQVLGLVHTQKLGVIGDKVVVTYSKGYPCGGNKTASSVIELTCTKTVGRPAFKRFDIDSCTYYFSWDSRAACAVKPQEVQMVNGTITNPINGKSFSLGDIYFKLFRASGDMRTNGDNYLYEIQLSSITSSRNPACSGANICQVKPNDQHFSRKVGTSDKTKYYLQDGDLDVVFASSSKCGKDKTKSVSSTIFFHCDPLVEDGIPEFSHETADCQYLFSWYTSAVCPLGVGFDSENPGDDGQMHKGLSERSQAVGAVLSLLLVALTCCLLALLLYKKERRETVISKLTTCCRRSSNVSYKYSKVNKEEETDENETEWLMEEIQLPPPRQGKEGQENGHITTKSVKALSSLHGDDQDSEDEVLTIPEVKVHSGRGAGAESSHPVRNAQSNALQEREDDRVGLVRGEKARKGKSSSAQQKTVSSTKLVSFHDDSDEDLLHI

Substance | stated: internalized; internalized GAA activity (nmol/mg protein/hr) in skeletal muscle myoblasts against rhGAA added (nM) | stated: internalized; internalized GAA activity (pmol 4-MU/mg/h), 4MU-α-Glc assay, Pompe patient fibroblasts, 20 nM rhGAA | stated: taken up; internalized GAA activity in CRL 2076 (normal fibroblasts) | stated: taken up; internalized GAA activity in PM25 (Pompe fibroblasts) | stated: not internalized; internalized GAA activity (pmol 4-MU/mg/h), 4MU-α-Glc assay, Pompe patient fibroblasts, 20 nM rhGAA
ATB200 rhGAA (recombinant human acid α-glucosidase produced from CHO cell line GA-ATB200) | ATB200 curve rises steeply from 0, to about 400 near 15 nM and about 540 near 30 nM, then flattens: about 630 near 60 nM, about 700 at 125 nM, about 740 at 250 nM | bar 'Cipaglucosidase alfa + Mock' is the highest, a little above the 900 tick; untreated cells are at 0 | curve marked ATB200 rises steeply from about 0 to about 26 at about 10 nM and about 33 nmol/mg protein/hr at about 27 nM, then plateau of about 34-35 up to about 240 nM; with +M6P at about 240 nM (triangle) only about 5 | curve marked ATB200 rises steeply from about 0 to about 30 at about 10 nM and about 36 at about 27 nM, then plateau of about 40 nmol/mg protein/hr at about 80 nM (point of about 45 at about 240 nM); with +M6P at about 245 nM (triangle) about 1 | –
LUMIZYME® (alglucosidase alfa, conventional rhGAA product) | – | – | curve marked Alglucosidase Alfa rises slowly: about 8 at about 10 nM, about 16 at about 27 nM, about 23 at about 80 nM, about 35 nmol/mg protein/hr at about 240 nM, no clear plateau; with +M6P at about 240 nM (square) about 1 | curve marked Alglucosidase Alfa rises slowly: about 7 at about 10 nM, about 13 at about 27 nM, about 27 at about 80 nM, about 37 nmol/mg protein/hr at about 240 nM, still rising; with +M6P at about 245 nM (square) about 3 | –
PAP-treated cipaglucosidase alfa (dephosphorylated cipaglucosidase alfa) | – | – | – | – | bar 'Cipaglucosidase alfa + PAP' is at about 0, at the level of 'Untreated Cells' and 'PAP Alone'
alglucosidase alfa (mock-treated control of Example 16) | Alglucosidase alfa curve rises slowly: about 150 near 30 nM, about 250 near 60 nM, about 390 at 125 nM, about 475 at 250 nM. It is still rising with no plateau and lies below ATB200 at every concentration | bar 'Alglucosidase alfa + Mock' lies a little below the 300 tick, clearly above untreated cells and well below the cipaglucosidase alfa + Mock bar | – | – | –
